Laboratory results from the supplement of paper PMC11246515.
± gives the standard deviation of the averaged measurements.

Assay: total protein half-life in vivo (active degradation + dilution); higher = more stable protein
[1] = E. coli NCM3722 delta-clpP delta-lon delta-hslV, growth: N-lim chemostat, doubling time 6 h
[2] = E. coli NCM3722 delta-clpP, growth: N-lim chemostat, doubling time 6 h
[3] = E. coli NCM3722 delta-hslV, growth: N-lim chemostat, doubling time 6 h
[4] = E. coli NCM3722 delta-lon, growth: N-lim chemostat, doubling time 6 h
[5] = E. coli NCM3722 delta-smpB, growth: N-lim chemostat, doubling time 6 h
[6] = wild type E. coli NCM3722, growth: C-lim chemostat, doubling time 3 h
[7] = wild type E. coli NCM3722, growth: C-lim chemostat, doubling time 6 h
[8] = wild type E. coli NCM3722, growth: C-lim chemostat, doubling time 12 h
[9] = wild type E. coli NCM3722, growth: N-lim chemostat, doubling time 6 h
[10] = wild type E. coli NCM3722, growth: N-lim chemostat, doubling time 12 h
[11] = wild type E. coli NCM3722, growth: P-lim chemostat, doubling time 12 h
[12] = wild type E. coli NCM3722, growth: P-lim chemostat, doubling time 6 h

Sequence: MKRSISFRPTLLALVLATNFPVAHAAVPKDMLVIGKAADPQTLDPAVTIDNNDWTVTYPSYQRLVQYKTDGDKGSTDVEGDLASSWKASDDQKEWTFTLKDNAKFADGTPVTAEAVKLSFERLLKIGQGPAEAFPKDLKIDAPDEHTVKFTLSQPFAPFLYTLANDGASIINPAVLKEHAADDARGFLAQNTAGSGPFMLKSWQKGQQLVLVPNPHYPGNKPNFKRVSVKIIGESASRRLQLSRGDIDIADALPVDQLNALKQENKVNVAEYPSLRVTYLYLNNSKAPLNQADLRRAISWSTDYQGMVNGILSGNGKQMRGPIPEGMWGYDATAMQYNHDETKAKAEWDKVTSKPTSLTFLYSDNDPNWEPIALATQSSLNKLGIIVKLEKLANATMRDRVGKGDYDIAIGNWSPDFADPYMFMNYWFESDKKGLPGNRSFYENSEVDKLLRNALATTDQTQRTRDYQQAQKIVIDDAAYVYLFQKNYQLAMNKEVKGFVFNPMLEQVFNINTMSK
- total protein half-life in vivo [1]: 4.61 ± 0.059 h
- total protein half-life in vivo [2]: 5.72 ± 1.4 h
- total protein half-life in vivo [3]: 5 ± 0.15 h
- total protein half-life in vivo [4]: 5.74 ± 0.097 h
- total protein half-life in vivo [5]: 5.02 ± 0.13 h
- total protein half-life in vivo [6]: 2.73 ± 0.04 h
- total protein half-life in vivo [7]: 4.77 ± 0.049 h
- total protein half-life in vivo [8]: 7.85 ± 0.62 h
- total protein half-life in vivo [9]: 5.26 ± 0.5 h
- total protein half-life in vivo [10]: 7.37 ± 0.29 h
- total protein half-life in vivo [11]: 12.42 ± 0.093 h

Sequence: MEFSFSPKRLVVAVAAALPLMASAADTPSTATARKGFAGYDHPNQYLVKPATTIADNMMPVMQHPAQDKETQQKLAELEKKTGKKPNVVVFLLDDVGWMDVGFNGGGVAVGNPTPDIDAVASQGLILTSAYSQPSSSPTRATILTGQYSIHHGILMPPMYGQPGGLQGLTTLPQLLHDQGYVTQAIGKWHMGENKESQPQNVGFDDFRGFNSVSDMYTEWRDVHVNPEVALSPDRSEYIKQLPFSKDDVHAVRGGEQQAIADITPKYMEDLDQRWMDYGVKFLDKMAKSDKPFFLYYGTRGCHFDNYPNAKYAGSSPARTSYGDCMVEMNDVFANLYKTLEKNGQLDNTLIVFTSDNGPEAEVPPHGRTPFRGAKGSTWEGGVRVPTFVYWKGMIQPRKSDGIVDLADLFPTALDLAGHPGAKVANLVPKTTFIDGVDQTSFFLGTNGQSNRKAEHYFLNGKLAAVRMDEFKYHVLIQQPYAYTQSGYQGGFTGTVMQTAGSSVFNLYTDPQESDSIGVRHIPMGVPLQTEMHAYMEILKKYPPRAQIKSD
- total protein half-life in vivo [9]: 3.56 h

Sequence: MSLAGKKIVLGVSGGIAAYKTPELVRRLRDRGADVRVAMTEAAKAFITPLSLQAVSGYPVSDSLLDPAAEAAMGHIELGKWADLVILAPATADLIARVAAGMANDLVSTICLATPAPVAVLPAMNQQMYRAAATQHNLEVLASRGLLIWGPDSGSQACGDIGPGRMLDPLTIVDMAVAHFSPVNDLKHLNIMITAGPTREPLDPVRYISNHSSGKMGFAIAAAAARRGANVTLVSGPVSLPTPPFVKRVDVMTALEMEAAVNASVQQQNIFIGCAAVADYRAATVAPEKIKKQATQGDELTIKMVKNPDIVAGVAALKDHRPYVVGFAAETNNVEEYARQKRIRKNLDLICANDVSQPTQGFNSDNNALHLFWQDGDKVLPLERKELLGQLLLDEIVTRYDEKNRR [P0ABQ0]
- total protein half-life in vivo [1]: 6.25 ± 0.61 h
- total protein half-life in vivo [2]: 6.16 ± 0.64 h
- total protein half-life in vivo [3]: 5.48 ± 0.55 h
- total protein half-life in vivo [4]: 5.48 ± 0.67 h
- total protein half-life in vivo [5]: 4.75 ± 0.079 h
- total protein half-life in vivo [6]: 3.15 ± 0.096 h
- total protein half-life in vivo [7]: 5.63 ± 0.26 h
- total protein half-life in vivo [8]: 12.5 ± 3.3 h
- total protein half-life in vivo [9]: 4.7 ± 0.6 h
- total protein half-life in vivo [10]: 8.72 ± 0.93 h
- total protein half-life in vivo [12]: 6.17 ± 0.24 h
- total protein half-life in vivo [11]: 11.8 ± 0.15 h

Sequence: MSKGTTSQDAPFGTLLGYAPGGVAIYSSDYSSLDPQEYEDDAVFRSYIDDEYMGHKWQCVEFARRFLFLNYGVVFTDVGMAWEIFSLRFLREVVNDNILPLQAFPNGSPRAPVAGALLIWDKGGEFKDTGHVAIITQLHGNKVRIAEQNVIHSPLPQGQQWTRELEMVVENGCYTLKDTFDDTTILGWMIQTEDTEYSLPQPEIAGELLKISGARLENKGQFDGKWLDEKDPLQNAYVQANGQVINQDPYHYYTITESAEQELIKATNELHLMYLHATDKVLKDDNLLALFDIPKILWPRLRLSWQRRRHHMITGRMDFCMDERGLKVYEYNADSASCHTEAGLILERWAEQGYKGNGFNPAEGLINELAGAWKHSRARPFVHIMQDKDIEENYHAQFMEQALHQAGFETRILRGLDELGWDAAGQLIDGEGRLVNCVWKTWAWETAFDQIREVSDREFAAVPIRTGHPQNEVRLIDVLLRPEVLVFEPLWTVIPGNKAILPILWSLFPHHRYLLDTDFTVNDELVKTGYAVKPIAGRCGSNIDLVSHHEEVLDKTSGKFAEQKNIYQQLWCLPKVDGKYIQVCTFTVGGNYGGTCLRGDESLVIKKESDIEPLIVVKK [P0AES0]
- total protein half-life in vivo [1]: 5 ± 0.066 h
- total protein half-life in vivo [2]: 4.62 ± 0.17 h
- total protein half-life in vivo [3]: 4.62 ± 0.18 h
- total protein half-life in vivo [4]: 6.12 ± 1.3 h
- total protein half-life in vivo [5]: 4.58 ± 0.23 h
- total protein half-life in vivo [6]: 3 ± 0.4 h
- total protein half-life in vivo [7]: 5.17 ± 0.38 h
- total protein half-life in vivo [8]: 10.6 ± 0.36 h
- total protein half-life in vivo [9]: 4.645 ± 0.024 h
- total protein half-life in vivo [10]: 8.42 ± 0.4 h
- total protein half-life in vivo [12]: 5.85 ± 0.5 h
- total protein half-life in vivo [11]: 11.2 ± 0.72 h

Sequence: MTMNITSKQMEITPAIRQHVADRLAKLEKWQTHLINPHIILSKEPQGFVADATINTPNGVLVASGKHEDMYTAINELINKLERQLNKLQHKGEARRAATSVKDANFVEEVEEE [P0AD49]
- total protein half-life in vivo [1]: 6.33 ± 1.1 h
- total protein half-life in vivo [2]: 4.87 h
- total protein half-life in vivo [3]: 1.49 h
- total protein half-life in vivo [5]: 0.687 h
- total protein half-life in vivo [6]: 0.852 ± 0.17 h
- total protein half-life in vivo [7]: 2.32 h
- total protein half-life in vivo [8]: 2.47 ± 0.42 h
- total protein half-life in vivo [10]: 1.07 h
- total protein half-life in vivo [11]: 1.59 h

Sequence: MDSFPAIEIDKVKAWDFRLANINTSECLNVAYGVDANYLDGVGVSITSIVLNNRHINLDFYIIADVYNDGFFQKIAKLAEQNQLRITLYRINTDKLQCLPCTQVWSRAMYFRLFAFQLLGLTLDRLLYLDADVVCKGDISQLLHLGLNGAVAAVVKDVEPMQEKAVSRLSDPELLGQYFNSGVVYLDLKKWADAKLTEKALSILMSKDNVYKYPDQDVMNVLLKGMTLFLPREYNTIYTIKSELKDKTHQNYKKLITESTLLIHYTGATKPWHKWAIYPSVKYYKIALENSPWKDDSPRDAKSIIEFKKRYKHLLVQHHYISGIIAGVCYLCRKYYRK
- total protein half-life in vivo [1]: 5.91 ± 0.13 h
- total protein half-life in vivo [2]: 5.65 ± 0.22 h
- total protein half-life in vivo [3]: 5.85 ± 1.1 h
- total protein half-life in vivo [4]: 4.71 ± 0.095 h
- total protein half-life in vivo [5]: 5.17 ± 0.11 h
- total protein half-life in vivo [6]: 2.93 ± 0.14 h
- total protein half-life in vivo [7]: 5.19 ± 0.48 h
- total protein half-life in vivo [8]: 9.31 ± 1.8 h
- total protein half-life in vivo [9]: 6.04 ± 1.2 h
- total protein half-life in vivo [10]: 10.3 ± 2.3 h
- total protein half-life in vivo [12]: 5.29 ± 0.38 h
- total protein half-life in vivo [11]: 9.86 ± 0.11 h

Sequence: MSELNDLLTTRELQRWRLILGEAAETTLCGLDDNARQIDHALEWLYGRDPERLQRGERSGGLGGSNLTTPEWINSIHTLFPQQVIERLESDAVLRYGIEDVVTNLDVLERMQPSESLLRAVLHTKHLMNPEVLAAARRIVCQVVEEIMARLAKEVRQAFSGVRDRRRRSFIPLARNFDFKSTLRANLQHWHPQHGKLYIESPRFNSRIKRQSEQWQLVLLVDQSGSMVDSVIHSAVMAACLWQLPGIRTHLVAFDTSVVDLTADVADPVELLMKVQLGGGTNIASAVEYGRQLIEQPAKSVIILVSDFYEGGSSSLLTHQVKKCVQSGIKVLGLAALDSTATPCYDRDTAQALVNVGAQIAAMTPGELASWLAENLQS
- total protein half-life in vivo [8]: 12.9 h
- total protein half-life in vivo [10]: 8.61 h
- total protein half-life in vivo [12]: 6.39 h

Sequence: MTKLKLLALGVLIATSAGVAHAEGKFSLGAGVGVVEHPYKDYDTDVYPVPVINYEGDNFWFRGLGGGYYLWNDATDKLSITAYWSPLYFKAKDSGDHQMRHLDDRKSTMMAGLSYAHFTQYGYLRTTLAGDTLDNSNGIVWDMAWLYRYTNGGLTVTPGIGVQWNSENQNEYYYGVSRKESARSGLRGYNPNDSWSPYLELSASYNFLGDWSVYGTARYTRLSDEVTDSPMVDKSWTGLISTGITYKF [P0A908]
- total protein half-life in vivo [1]: 6.14 ± 1.1 h
- total protein half-life in vivo [2]: 7.17 ± 0.13 h
- total protein half-life in vivo [3]: 6.01 ± 1.1 h
- total protein half-life in vivo [4]: 6.05 ± 1 h
- total protein half-life in vivo [5]: 5.96 ± 0.079 h
- total protein half-life in vivo [6]: 2.55 ± 0.14 h
- total protein half-life in vivo [7]: 5.81 ± 0.46 h
- total protein half-life in vivo [8]: 13.6 ± 2.3 h
- total protein half-life in vivo [9]: 6.35 ± 0.63 h
- total protein half-life in vivo [10]: 14 ± 1.4 h
- total protein half-life in vivo [12]: 5.7 ± 0.23 h

Sequence: MMSGEHTLKAVRGSFIDVTRTIDNPEEIASALRFIEDGLLLIKQGKVEWFGEWENGKHQIPDTIRVRDYRGKLIVPGFVDTHIHYPQSEMVGAYGEQLLEWLNKHTFPTERRYEDLEYAREMSAFFIKQLLRNGTTTALVFGTVHPQSVDALFEAASHINMRMIAGKVMMDRNAPDYLLDTAESSYHQSKELIERWHKNGRLLYAITPRFAPTSSPEQMAMAQRLKEEYPDTWVHTHLCENKDEIAWVKSLYPDHDGYLDVYHQYGLTGKNCVFAHCVHLEEKEWDRLSETKSSIAFCPTSNLYLGSGLFNLKKAWQKKVKVGMGTDIGAGTTFNMLQTLNEAYKVLQLQGYRLSAYEAFYLATLGGAKSLGLDDLIGNFLPGKEADFVVMEPTATPLQQLRYDNSVSLVDKLFVMMTLGDDRSIYRTYVDGRLVYERN
- total protein half-life in vivo [1]: 5.05 ± 0.34 h
- total protein half-life in vivo [2]: 3.95 ± 0.22 h
- total protein half-life in vivo [3]: 4.26 ± 0.28 h
- total protein half-life in vivo [4]: 4.12 ± 0.085 h
- total protein half-life in vivo [5]: 3.79 ± 0.042 h
- total protein half-life in vivo [6]: 3.26 ± 0.59 h
- total protein half-life in vivo [7]: 6.35 ± 1.1 h
- total protein half-life in vivo [8]: 10.2 ± 0.27 h
- total protein half-life in vivo [9]: 3.78 ± 0.16 h
- total protein half-life in vivo [10]: 7.14 ± 1.4 h
- total protein half-life in vivo [12]: 5.87 h

Sequence: MIDTTLPLTDIHRHLDGNIRPQTILELGRQYNISLPAQSLETLIPHVQVIANEPDLVSFLTKLDWGVKVLASLDACRRVAFENIEDAARHGLHYVELRFSPGYMAMAHQLPVAGVVEAVIDGVREGCRTFGVQAKLIGIMSRTFGEAACQQELEAFLAHRDQITALDLAGDELGFPGSLFLSHFNRARDAGWHITVHAGEAAGPESIWQAIRELGAERIGHGVKAIEDRALMDFLAEQQIGIESCLTSNIQTSTVAELAAHPLKTFLEHGIRASINTDDPGVQGVDIIHEYTVAAPAAGLSREQIRQAQINGLEMAFLSAEEKRALREKVAAK
- total protein half-life in vivo [1]: 5.4 ± 0.46 h
- total protein half-life in vivo [2]: 4.73 ± 0.99 h
- total protein half-life in vivo [3]: 4.41 ± 0.094 h
- total protein half-life in vivo [4]: 5.25 ± 0.55 h
- total protein half-life in vivo [5]: 4.49 ± 0.38 h
- total protein half-life in vivo [6]: 2.88 ± 0.36 h
- total protein half-life in vivo [8]: 10.6 ± 0.3 h
- total protein half-life in vivo [9]: 4.68 ± 0.59 h
- total protein half-life in vivo [10]: 7.15 ± 0.088 h
- total protein half-life in vivo [12]: 5.63 ± 0.2 h
- total protein half-life in vivo [11]: 11 ± 0.3 h
